In assay [1] the target is fibrin (purified fibrin clots) (UniProt P02671).
In assay [2] the target is plasmin (Homo sapiens) (UniProt P00747). To be noted: cited from earlier work.
Assay [3] shares this target. Briefly: SPR. The following applies: cited from earlier work.
The target of assay [4] is plasminogen (Homo sapiens) (UniProt P00747). The following applies: cited from earlier work.

Where two headings read alike, the source gives them in different places.

Sequence of streptokinase (P10520 27-440): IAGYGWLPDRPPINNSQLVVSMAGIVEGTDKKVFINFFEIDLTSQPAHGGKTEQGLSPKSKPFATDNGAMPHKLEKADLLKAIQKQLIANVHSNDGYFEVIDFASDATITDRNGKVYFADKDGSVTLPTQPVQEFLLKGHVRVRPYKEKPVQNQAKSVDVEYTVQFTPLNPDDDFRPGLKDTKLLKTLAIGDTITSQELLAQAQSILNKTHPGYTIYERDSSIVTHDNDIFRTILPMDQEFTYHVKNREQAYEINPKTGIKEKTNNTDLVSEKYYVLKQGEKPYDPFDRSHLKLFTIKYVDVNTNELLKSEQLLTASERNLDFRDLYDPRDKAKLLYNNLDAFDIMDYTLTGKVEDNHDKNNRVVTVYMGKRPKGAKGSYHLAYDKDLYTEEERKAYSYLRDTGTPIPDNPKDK
Sequence of UniProt P02671 (P02671 36-866, chain 1 of 3): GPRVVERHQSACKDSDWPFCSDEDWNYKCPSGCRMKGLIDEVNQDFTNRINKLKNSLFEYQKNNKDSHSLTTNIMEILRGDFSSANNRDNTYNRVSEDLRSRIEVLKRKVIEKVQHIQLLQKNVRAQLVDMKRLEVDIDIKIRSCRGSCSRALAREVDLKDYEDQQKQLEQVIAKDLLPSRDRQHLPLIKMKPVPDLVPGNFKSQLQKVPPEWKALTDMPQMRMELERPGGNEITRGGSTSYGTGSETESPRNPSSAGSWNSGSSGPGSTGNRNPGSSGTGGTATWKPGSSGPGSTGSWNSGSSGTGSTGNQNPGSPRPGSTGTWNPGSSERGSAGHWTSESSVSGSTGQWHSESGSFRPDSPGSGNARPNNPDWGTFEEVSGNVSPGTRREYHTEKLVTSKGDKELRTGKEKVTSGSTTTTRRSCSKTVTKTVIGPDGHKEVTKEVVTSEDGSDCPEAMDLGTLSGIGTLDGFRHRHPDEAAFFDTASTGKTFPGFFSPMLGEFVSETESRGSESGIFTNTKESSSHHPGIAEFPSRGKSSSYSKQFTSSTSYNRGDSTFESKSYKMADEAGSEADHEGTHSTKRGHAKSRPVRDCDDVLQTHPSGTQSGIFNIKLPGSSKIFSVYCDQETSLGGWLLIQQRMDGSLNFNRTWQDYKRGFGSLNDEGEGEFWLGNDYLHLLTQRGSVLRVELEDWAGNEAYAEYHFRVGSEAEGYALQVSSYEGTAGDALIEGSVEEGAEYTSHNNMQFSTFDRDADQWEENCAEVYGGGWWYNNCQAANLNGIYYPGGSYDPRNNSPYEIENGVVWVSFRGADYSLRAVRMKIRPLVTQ
Sequence of UniProt P02671 (P02675 45-491, chain 2 of 3, further chain): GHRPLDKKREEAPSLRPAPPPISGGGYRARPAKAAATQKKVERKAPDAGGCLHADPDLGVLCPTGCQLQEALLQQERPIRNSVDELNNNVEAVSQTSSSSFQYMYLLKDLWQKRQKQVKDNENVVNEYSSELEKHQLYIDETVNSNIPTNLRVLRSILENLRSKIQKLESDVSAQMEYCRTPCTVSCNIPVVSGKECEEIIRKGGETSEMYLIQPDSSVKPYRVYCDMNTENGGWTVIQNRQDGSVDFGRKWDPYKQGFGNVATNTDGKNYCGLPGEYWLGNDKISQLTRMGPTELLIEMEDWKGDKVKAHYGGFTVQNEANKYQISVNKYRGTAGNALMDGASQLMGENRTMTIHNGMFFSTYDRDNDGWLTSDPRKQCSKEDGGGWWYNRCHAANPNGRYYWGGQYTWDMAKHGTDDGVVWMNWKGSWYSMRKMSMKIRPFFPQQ
Sequence of UniProt P02671 (P02679 27-453, chain 3 of 3, further chain): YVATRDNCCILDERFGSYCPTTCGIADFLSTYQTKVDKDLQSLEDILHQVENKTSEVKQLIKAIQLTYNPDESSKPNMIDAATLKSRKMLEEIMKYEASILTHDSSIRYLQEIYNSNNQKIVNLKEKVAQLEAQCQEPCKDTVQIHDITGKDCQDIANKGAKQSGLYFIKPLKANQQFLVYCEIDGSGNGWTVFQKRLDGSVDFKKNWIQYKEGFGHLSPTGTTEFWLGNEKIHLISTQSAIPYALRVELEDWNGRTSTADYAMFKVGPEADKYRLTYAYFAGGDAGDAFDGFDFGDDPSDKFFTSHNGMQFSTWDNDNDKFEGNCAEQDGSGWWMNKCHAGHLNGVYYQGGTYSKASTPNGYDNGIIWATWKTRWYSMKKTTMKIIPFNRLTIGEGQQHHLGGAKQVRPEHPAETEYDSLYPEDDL

For “recombinant streptokinase from the M1 type group A streptococcus, Streptococcus pyogenes strain SF370 (rSK-M1GAS) (natural protein)”, the IC50 of tranexamic acid (TA) for inhibition of Pgn activation by rSK-M1GAS in fibrin in assay [1] amounted to 133000 nM.

Regarding streptokinase (from UniProt P10520), the Kd (usually a measure of binding affinity in units of concentration) in assay [2] was 0.3 nM; in assay [3] it was 0.5 nM; in assay [4], 6 nM.
